Measurements reported in patent US20240043505A1 (UNIVERSITY OF PITTSBURGH OF THE COMMONWEALTH SYSTEM OF …, published 2024).
Several values for one entry are separate records, joined by “and”; a condition that tells them apart may be missing. Identical values can stand only once.

B1: Nb9 (VHH)
VHH: HVQLVESGGGLVQTGGSLRLSCAFSGYTFSTFPTAWFRQAPGKEREFVAGIRWNGGSRDYTEYADFVKGRFTISRDNAKNMIYLQMISLKPEDTALYYCAASHGVVDGTSVNGYRYWGQGTQVTVSS
B2: Nb95 (VHH)
VHH: QVQLVESGGGLVQAGGSLRLSCAASGRTFSSYSMGWFRQAQGKEREFVATINGNGRDTYYTNSVKGRFTISRDDATNTVYLQMNSLKPEDTAIYYCAADKDVYYGYTSFPNEYEYWGQGTQVTVSS
B3: Nb95 (VHH)
VHH: B2 VHH
B4: Nb34 (VHH)
VHH: DVQLVESGGGLVQAGGSLRLSCAASGFTFSNYVMYWGRQAPGKGREWVSGIDSDGSDTAYASSVKGRFTISRDNAKNTLYLQMNNLKPEDTALYYCVKSKDPYGSPWTRSEFDDYWGQGTQVTVSS
B5: Nb21 (VHH)
VHH: QVQLVESGGGLVQAGGSLRLSCAVSGLGAHRVGWFRRAPGKEREFVAAIGANGGNTNYLDSVKGRFTISRDNAKNTIYLQMNSLKPQDTAVYYCAARDIETAEYTYWGQGTQVTVSS
B6: Nb105 (VHH)
VHH: HVQLVESGGGLVQAGGSLRLSCAVSGRTFSTYGMAWFRQAPGKERDFVATITRSGETTLYADSVKGRFTISRDNAKNTVYLQMNSLKIEDTAVYYCAVRRDSSWGYSRDLFEYDYWGQGTQVTVSS
B7: Nb105 (VHH)
VHH: B6 VHH
B8: Nb89 (VHH)
VHH: HVQLVESGGGLVQAGGSLRLSCAASGGTFTTFRMAWFRQTPGKEREFVAASSWGFVNYADPVKGRFTISRDNAKNTVYLEMSSLKTEDTAVYYCAARNPGTGQYDYWGQGTQVTVSS
B9: Nb89 (VHH)
VHH: B8 VHH

Assays:
[1] = target: T1, SARS-CoV-2 spike receptor-binding domain (RBD) (SARS-CoV-2, UniProt P0DTC2 319-541); assay: indirect ELISA, RBD coated on plate, 4PL fit
[2] = target: SARS-CoV-2 spike glycoprotein (Wuhan-Hu-1 strain) on pseudotyped virus particles (SARS-CoV-2 (Wuhan-Hu-1 strain), UniProt P0DTC2 14-1273); assay: cell-based or functional assay
[3] = target: SARS-CoV-2 spike glycoprotein on authentic virus (Munich strain) (SARS-CoV-2 (Munich strain), UniProt P0DTC2 14-1273); assay: cell-based or functional assay
[4] = target: SARS-CoV-2 spike glycoprotein on authentic SARS-CoV-2 (Munich strain, SARS-CoV-2/München-1.1/2020/929) (SARS-CoV-2, UniProt P0DTC2 14-1273); assay: cell-based or functional assay
[5] = target: SARS-CoV-2 spike glycoprotein on pseudotyped SARS-CoV-2 (Wuhan-Hu-1 strain) particles (SARS-CoV-2, UniProt P0DTC2 14-1273); assay: cell-based or functional assay
SARS-CoV RBD = SARS-CoV RBD (SARS-CoV, UniProt P59594 306-527)
[6] = target: T2, SARS-CoV-2 (Wuhan-Hu-1 strain) spike glycoprotein on pseudotyped virus particles (SARS-CoV-2, UniProt P0DTC2 14-1273); assay: cell-based or functional assay
[7] = target: T3, SARS-CoV-2 Munich strain spike glycoprotein on authentic virus (SARS-CoV-2); assay: cell-based or functional assay
[8] = target: T2, SARS-CoV-2 (Wuhan-Hu-1 strain) spike …; assay: cell-based or functional assay; remark: listed apart in the source
[9] = target: T3, SARS-CoV-2 Munich strain spike …; assay: cell-based or functional assay; remark: listed apart in the source
[10] = target: SARS-CoV-2 spike receptor-binding domain (RBD), recombinant (SARS-CoV-2, UniProt P0DTC2 319-541); assay: SPR (Biacore 3000), RBD immobilized on the chip, Nb as analyte, 1:1 Langmuir fit
[11] = target: T1, SARS-CoV-2 spike receptor-binding …; assay: SPR (Biacore 3000), RBD immobilised, Nb as analyte, 1:1 Langmuir fit

Binder | ELISA affinity [1] [nM] | Authentic virus PRNT IC50 [4] [nM] | Pseudo-neutralization IC50 (Luciferase) [5] [nM] | Pseudo-neut IC50 Luciferase [6] [nM] | Authentic virus PRNT IC50 [7] [nM] | other results
B1 | 0.89 |  |  |  |  | Pseudo-neutralization IC50 (Luciferase) [2]: 1.5 nM; Authentic virus PRNT IC50 [3]: 1.72 nM
B2 |  | 5.11 | 10 |  |  | 
B3 |  |  |  | 10 | 5.11 | IC50 (SARS-CoV RBD): 31.6 nM; neutralization of SARS-CoV-2 (assay not stated) [8]: < 150 ng/mL
B4 | 0.47 |  |  |  |  | Pseudo-neutralization IC50 (Luciferase) [2]: 2 nM; Authentic virus PRNT IC50 [3]: 1.12 nM
B5 |  |  |  | 0.0495 | 0.022 | Pseudo-neutralization (GFP) [6]: < 0.5 nM; IC50, pseudovirus assay [8]: 0.7 ng/ml and 0.045 nM; IC50, SARS-CoV-2 PRNT [9]: 0.021 nM
B6 |  | 5.1 | 5 |  |  | 
B7 |  |  |  | 5.11 | 5.07 | IC50 (SARS-CoV RBD): 3.76 nM; neutralization of SARS-CoV-2 (assay not stated) [8]: < 150 ng/mL
B8 |  | 0.154 | 0.129 |  |  | Pseudo-neutralization (GFP) [5]: < 0.5 nM; Kd [10]: 0.108 nM; koff [10]: 0.000624 s⁻¹
B9 | 1.09 |  |  |  |  | kon [11]: 5.78e+06 M⁻¹ s⁻¹
